From patent US20190233493A1 (Sanofi, published 2019)
*1 amine or outer side, *2 acyl side, *3 side chain or, on linkers, in order; H or OH if unused. Primed or numbered codes have the meaning given here. Side-chain parts run from the residue outwards. [ ]: non-standard residue; d: D form. The star is where a group is joined. PEG12 = NCCOCCOCCOCCOCCOCCOCCOCCOCCOCCOCCOCCOCCC(=O)O; γGlu = O=C(O)[C@H](CCC(=O)[*:2])N[*:1]; 1Nal = N[C@@H](Cc1cccc2ccccc12)C(=O)O; Stearoyl = CCCCCCCCCCCCCCCCCC(=O)*; Palmitoyl = CCCCCCCCCCCCCCCC(=O)*; Lauroyl = CCCCCCCCCCCC(=O)*; Nle = CCCC[C@H](N)C(=O)O; PEG2′ = PEG2 spacer unit; PEG2″ = not defined here; Aib = CC(C)(N)C(=O)O

T1: RXFP1 receptor (UniProt Q9HBX9 1-757, limits assumed)
T1 sequence (looked up): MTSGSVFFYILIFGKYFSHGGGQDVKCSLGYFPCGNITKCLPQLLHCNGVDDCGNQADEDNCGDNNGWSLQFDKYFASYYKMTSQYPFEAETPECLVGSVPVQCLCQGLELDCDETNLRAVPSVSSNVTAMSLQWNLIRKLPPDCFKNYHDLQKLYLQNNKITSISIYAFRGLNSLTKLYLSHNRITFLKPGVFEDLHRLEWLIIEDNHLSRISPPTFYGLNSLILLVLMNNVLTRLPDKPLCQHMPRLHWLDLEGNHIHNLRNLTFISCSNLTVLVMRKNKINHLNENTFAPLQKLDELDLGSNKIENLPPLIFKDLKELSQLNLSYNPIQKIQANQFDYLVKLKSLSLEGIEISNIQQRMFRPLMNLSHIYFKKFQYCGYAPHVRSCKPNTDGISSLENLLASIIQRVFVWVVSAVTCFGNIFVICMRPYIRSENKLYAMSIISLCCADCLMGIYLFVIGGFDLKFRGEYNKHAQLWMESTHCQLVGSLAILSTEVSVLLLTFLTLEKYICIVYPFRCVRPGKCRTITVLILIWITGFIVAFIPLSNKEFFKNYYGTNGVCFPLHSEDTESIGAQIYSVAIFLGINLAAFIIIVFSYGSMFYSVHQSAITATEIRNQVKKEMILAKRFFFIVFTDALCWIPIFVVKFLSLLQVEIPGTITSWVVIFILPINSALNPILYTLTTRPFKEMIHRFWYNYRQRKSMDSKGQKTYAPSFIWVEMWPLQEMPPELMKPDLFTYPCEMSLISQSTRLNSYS


Target: T1, RXFP1 receptor
Experiment: cell-based or functional assay

Binder	EC50 (nM), OVCAR 5 cells (cAMP) [nM]	EMax, OVCAR 5 cells (cAMP) [%]
Ac-LEGREKVRAQI[Aib][Aib]EG[Nle]STWS[Aib]RK[PEG2″][PEG2″]K([γGlu-γGlu-γGlu-Palmitoyl])-NH2 [peptide of SEQ ID NO: 11]	14.7	89
Ac-LEGREKVRAQI[Aib][Aib]EG[Nle]STWS[Aib]RKKK([γGlu-γGlu-PEG2″-PEG2″-PEG2″-γGlu-Stearoyl])-NH2 [peptide of SEQ ID NO: 106]	0.34	93
Ac-LEGREKVRAQI[Aib][Aib]EG[Nle]STWS[Aib]RKKK([PEG2′-PEG2′-γGlu-γGlu-PEG2′-γGlu-Stearoyl])-NH2 [peptide of SEQ ID NO: 99]	0.01	87
Ac-LEGREKVRAK(Ac)I[Aib][Aib]EG[Nle]ST[1Nal]S[Aib]RKKK([PEG2″-PEG2″-γGlu-γGlu-γGlu-PEG2″-γGlu-Stearoyl])-NH2 [peptide of SEQ ID NO: 103]	0.09	79
Ac-LEGREKVRAK(Ac)I[Aib][Aib]EG[Nle]STFS[Aib]RKK(Ac)K([PEG2″-PEG2″-PEG2″-γGlu-γGlu-γGlu-Stearoyl])-NH2 [peptide of SEQ ID NO: 112]	0.32	88
Ac-LEGREKVRAQI[Aib][Aib]EG[Nle]STWS[Aib]RKK(Ac)[PEG2′][PEG2′][PEG2′][γGlu][γGlu]K([γGlu-Palmitoyl])-NH2 [peptide of SEQ ID NO: 119]	1.21	83
Ac-LEGREKVRAQI[Aib][Aib]EG[Nle]STWS[Aib]RKK([γGlu-γGlu-PEG2″-PEG2″-γGlu-Stearoyl])-NH2 [peptide of SEQ ID NO: 104]	0.16	89
Ac-LEGREKVRAQI[Aib][Aib]EG[Nle]STWS[Aib]RKKK[PEG2″][PEG2″][PEG2″][γGlu][γGlu][γGlu]K([γGlu-Palmitoyl])-NH2 [peptide of SEQ ID NO: 107]	0.63	85
Ac-LEGREKVRAQI[Aib][Aib]EG[Nle]STWS[Aib]RKK[PEG2″][PEG2″][PEG2″][γGlu][γGlu][γGlu]K([γGlu-Palmitoyl])-NH2 [peptide of SEQ ID NO: 110]	0.17	80
Ac-LEGREKVRAK(Ac)I[Aib][Aib]EG[Nle]STWS[Aib]RKK(Ac)K([PEG2′-PEG2′-PEG2′-γGlu-γGlu-γGlu-Lauroyl])-NH2 [peptide of SEQ ID NO: 120]	110	92
Ac-LEGREKVRAK(Ac)I[Aib][Aib]EG[Nle]STWS[Aib]RKK(Ac)[PEG2′][PEG2′][PEG2′][PEG2′][γGlu][γGlu]K([γGlu-Palmitoyl])-NH2 [peptide of SEQ ID NO: 116]	1	89
Ac-LEGREKVRAQI[Aib][Aib]EG[Nle]STWS[Aib]RKKK[PEG2″][PEG2″][PEG2″][γGlu][γGlu]K([γGlu-Palmitoyl])-NH2 [peptide of SEQ ID NO: 109]	0.15	98
LEGREKVRAXIXXEGQSTWSXRKKX (Ac-L-E-G-R-E-K-V-R-A-K(Ac)-I-Aib-Aib-E-G-Q-S-T-W-S-Aib-R-K-K-K(PEG2-PEG2-PEG2-gE-gE-gE-gE-gE-Stea)-NH2) [peptide of SEQ ID NO: 111]	0.21	92
Ac-LEGREKVRAQI[Aib][Aib]EG[Nle]STWS[Aib]RKKK[PEG2″][PEG2″][PEG2″][PEG2″][γGlu][γGlu][γGlu]K([γGlu-Palmitoyl])-NH2 [peptide of SEQ ID NO: 108]	0.15	94
Ac-LEGREKVRAK(Ac)I[Aib][Aib]EG[Nle]STWS[Aib]RKKK([PEG2″-PEG2″-γGlu-γGlu-γGlu-PEG2″-γGlu-Stearoyl])-NH2 [peptide of SEQ ID NO: 102]	0.08	80
Ac-LEGREKVRAQI[Aib][Aib]EG[Nle]STWS[Aib]RK[PEG2′]K([PEG2′-γGlu-γGlu-γGlu-Palmitoyl])-NH2 [peptide of SEQ ID NO: 12]	26.7	76
Ac-LEGREKVRAQI[Aib][Aib]EG[Nle]STWS[Aib]RKKK([PEG2′-PEG2′-γGlu-γGlu-γGlu-PEG2′-Stearoyl])-NH2 [peptide of SEQ ID NO: 98]	0.74	99
Ac-LEGREKVRAQI[Aib][Aib]EG[Nle]STWS[Aib]RKK(Ac)[PEG2′][PEG2′][PEG2′][PEG2′][γGlu][γGlu]K([γGlu-Palmitoyl])-NH2 [peptide of SEQ ID NO: 121]	0.76	91

The next lines start with the values.

EC50 (nM), OVCAR 5 cells (cAMP) [nM]	EMax, OVCAR 5 cells (cAMP) [%]	Binder
0.16	90	Ac-LEGREKVRAQI[Aib][Aib]EG[Nle]STWS[Aib]RKK([PEG2″-PEG2″-γGlu-γGlu-PEG2″-γGlu-Stearoyl])-NH2 [peptide of SEQ ID NO: 100]
4.92	98	Ac-LEGREKVRAQI[Aib][Aib]EG[Nle]STWS[Aib]RKKK([PEG12-γGlu-γGlu-γGlu-Stearoyl])-NH2 (SMILES CCCCCCCCCCCCCCCCCC(=O)N[C@@H](CCC(=O)N[C@@H](CCC(=O)N[C@@H](CCC(=O)NCCOCCOCCOCCOCCOCCOCCOCCOCCOCCOCCOCCOCCC(=O)NCCCC[C@H](NC(=O)[C@H](CCCCN)NC(=O)[C@H](CCCCN)NC(=O)[C@H](CCCNC(=N)N)NC(=O)C(C)(C)NC(=O)[C@H](CO)NC(=O)[C@H](Cc1c[nH]c2ccccc12)NC(=O)[C@@H](NC(=O)[C@H](CO)NC(=O)[C@H](CCCC)NC(=O)CNC(=O)[C@H](CCC(=O)O)NC(=O)C(C)(C)NC(=O)C(C)(C)NC(=O)[C@@H](NC(=O)[C@H](CCC(N)=O)NC(=O)[C@H](C)NC(=O)[C@H](CCCNC(=N)N)NC(=O)[C@@H](NC(=O)[C@H](CCCCN)NC(=O)[C@H](CCC(=O)O)NC(=O)[C@H](CCCNC(=N)N)NC(=O)CNC(=O)[C@H](CCC(=O)O)NC(=O)[C@H](CC(C)C)NC(C)=O)C(C)C)[C@@H](C)CC)[C@@H](C)O)C(N)=O)C(=O)O)C(=O)O)C(=O)O) [peptide of SEQ ID NO: 97]
1.34	90	Ac-LEGREKVRAK(Ac)I[Aib][Aib]EG[Nle]STWS[Aib]RKK(Ac)[PEG2″][PEG2″][PEG2″]K([γGlu-γGlu-γGlu-Palmitoyl])-NH2 [peptide of SEQ ID NO: 114]
0.17	93	Ac-LEGREKVRAK(Ac)I[Aib][Aib]EGQSTWS[Aib]RKKK([PEG2′-PEG2′-PEG2′-γGlu-γGlu-γGlu-γGlu-Stearoyl])-NH2 [peptide of SEQ ID NO: 115]
1.79	86	Ac-LEGREKVRAQI[Aib][Aib]EG[Nle]STWS[Aib]RKK(Ac)[PEG2′][PEG2′][γGlu][γGlu]K([γGlu-Palmitoyl])-NH2 [peptide of SEQ ID NO: 118]
0.03	88	Ac-LEGREKVRAQI[Aib][Aib]EG[Nle]STWS[Aib]RKKK([γGlu-γGlu-PEG2″-PEG2″-γGlu-Stearoyl])-NH2 [peptide of SEQ ID NO: 105]
0.16	86	Ac-LEGREKVRAK(Ac)I[Aib][Aib]EG[Nle]STWS[Aib]RKK(Ac)K([PEG2″-PEG2″-γGlu-γGlu-PEG2″-γGlu-Stearoyl])-NH2 [peptide of SEQ ID NO: 101]
1.16	86	Ac-LEGREKVRAK(Ac)I[Aib][Aib]EG[Nle]STWS[Aib]RKK(Ac)[PEG2′][PEG2′][PEG2′][γGlu][γGlu]K([γGlu-Palmitoyl])-NH2 [peptide of SEQ ID NO: 117]
0.53	89	Ac-LEGREKVRAK(Ac)I[Aib][Aib]EGQSTWS[Aib]RKK(Ac)K([PEG2″-PEG2″-PEG2″-γGlu-γGlu-γGlu-Stearoyl])-NH2 [peptide of SEQ ID NO: 113]
